Fewer inactive variants are shown than the library holds.
Tests used:
biotinyl-Ile-oxazolone = test: self-aminoacylation, catalytic enhancement (BIO) (fold over background); higher = more active; k-Seq, kA / k0A0; sequences stand for … in GGGAAUGGAUCCACAUCUACGAAUUC…UUCACUGCAGACUUGACGAAGCUG
Outline: (§1)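 Mutagenized RNA pools with a 21-nt variable region (0.43 μM) were reacted with each biotinyl-aminoacyl-oxazolone at 2–1250 μM for 90 minutes at room temperature, in 50 μL HEPES/NaCl/KCl/MgCl2/CaCl2 buffer containing 5% acetonitrile at pH 6.9–7.0. RNA captured on streptavidin was quantified by triplicate qPCR and by Illumina sequencing. The fraction reacted for each sequence was fit to a pseudo-first-order model with bootstrapping, and catalytic enhancement is the median kA divided by the uncatalyzed rate, taken as the low-activity peak of a bimodal Gaussian fit.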

biotinyl-Leu-oxazolone = test: self-aminoacylation, catalytic enhancement (BLO) (fold over background); higher = more active; k-Seq, kA / k0A0; sequences stand for … in GGGAAUGGAUCCACAUCUACGAAUUC…UUCACUGCAGACUUGACGAAGCUG
Outline: as §1

biotinyl-Met-oxazolone = test: self-aminoacylation, catalytic enhancement (BMO) (fold over background); higher = more active; k-Seq, kA / k0A0; sequences stand for … in GGGAAUGGAUCCACAUCUACGAAUUC…UUCACUGCAGACUUGACGAAGCUG
Outline: as §1

biotinyl-Trp-oxazolone = test: self-aminoacylation, catalytic enhancement (BWO) (fold over background); higher = more active; k-Seq, kA / k0A0; sequences stand for … in GGGAAUGGAUCCACAUCUACGAAUUC…UUCACUGCAGACUUGACGAAGCUG
Outline: as §1

biotinyl-Phe-oxazolone = test: self-aminoacylation, catalytic enhancement (BFO) (fold over background); higher = more active; k-Seq, kA / k0A0; sequences stand for … in GGGAAUGGAUCCACAUCUACGAAUUC…UUCACUGCAGACUUGACGAAGCUG
Outline: as §1

biotinyl-Val-oxazolone = test: self-aminoacylation, catalytic enhancement (BVO) (fold over background); higher = more active; k-Seq, kA / k0A0; sequences stand for … in GGGAAUGGAUCCACAUCUACGAAUUC…UUCACUGCAGACUUGACGAAGCUG
Outline: as §1

Sequence | self-aminoacylation (biotinyl-Ile-oxazolone) | self-aminoacylation (biotinyl-Leu-oxazolone) | self-aminoacylation (biotinyl-Met-oxazolone) | self-aminoacylation (biotinyl-Trp-oxazolone) | self-aminoacylation (biotinyl-Phe-oxazolone) | self-aminoacylation (biotinyl-Val-oxazolone)
AAGUUUGCUAAAAGUCUCAAG [Fam3.1 aminoacylation ribozyme variant] | 1.11 | 0.875 | 1.24 | 1.45 | 4.24 | 0.996
AAGUUUGCUAAACGUCGCAAG [Fam3.1 aminoacylation ribozyme variant] | 0.739 | 0.537 | 0.608 | 0.603 | 0.887 | 0.542
AAGUUUGCUAACAAUCGCAAG [Fam3.1 aminoacylation ribozyme variant] | 0.619 | 0.591 | 0.63 | 0.717 | 1.03 | 0.599
AAGUUUGCUAACAGUCGCAAA [Fam3.1 aminoacylation ribozyme variant] | 1.43 | 1.23 | 1.06 | 1.58 | 2.28 | 0.995
AAGUUUGCUAACUGUCGCAAG [Fam3.1 aminoacylation ribozyme variant] | 0.784 | 1 | 1.01 | 0.984 | 0.773 | 0.79
AAGUUUGCUAAGAGACGCAAG [Fam3.1 aminoacylation ribozyme variant] | 0.661 | 0.967 | 0.544 | 0.74 | 1.28 | 0.76
AAGUUUGCUAAGAGUCGCAAG [Fam3.1 aminoacylation ribozyme variant] | 0.748 | 0.661 | 0.755 | 1.39 | 3.23 | 0.741
AAGUUUGCUAAGAGUCGGAAG [Fam3.1 aminoacylation ribozyme variant] | 0.879 | 0.64 | 0.956 | 1.4 | 1.35 | 0.923
AAGUUUGCUAAGAGUUGCAAG [Fam3.1 aminoacylation ribozyme variant] | 0.797 | 0.86 | 0.665 | 0.97 | 0.74 | 0.757
AAGUUUGCUAAGAUUCGCAAG [Fam3.1 aminoacylation ribozyme variant] | 0.986 | 0.86 | 0.647 | 1.04 | 1.13 | 0.867
AAGUUUGCUAAUAAUCGAAAG [Fam3.1 aminoacylation ribozyme variant] | 1.02 | 0.95 | 0.793 | 0.78 | 0.807 | 0.764
AAGUUUGCUAAUAAUCGCAUG [Fam3.1 aminoacylation ribozyme variant] | 0.866 | 0.932 | 1.05 | 1.15 | 1.21 | 0.926
AAGUUUGCUAAUAAUCGGAAG [Fam3.1 aminoacylation ribozyme variant] | 0.961 | 0.877 | 0.973 | 0.66 | 0.788 | 0.923
AAGUUUGCUAAUACACGCAAG [Fam3.1 aminoacylation ribozyme variant] | 0.665 | 0.564 | 0.7 | 0.66 | 1.19 | 0.627
AAGUUUGCUAAUACUCGCUAG [Fam3.1 aminoacylation ribozyme variant] | 0.63 | 0.594 | 0.532 | 0.445 | 0.624 | 0.507
AAGUUUGCUAAUACUGGCAAG [Fam3.1 aminoacylation ribozyme variant] | 0.642 | 0.696 | 0.481 | 0.458 | 0.739 | 0.571
AAGUUUGCUAAUAGACGCGAG [Fam3.1 aminoacylation ribozyme variant] | 0.793 | 0.619 | 0.912 | 0.812 | 0.443 | 0.64
AAGUUUGCUAAUAGACGGAAG [Fam3.1 aminoacylation ribozyme variant] | 0.637 | 0.406 | 0.544 | 0.764 | 0.91 | 0.584
AAGUUUGCUAAUAGCCGCGAG [Fam3.1 aminoacylation ribozyme variant] | 1.05 | 2.04 | 0.916 | 1.01 | 1.6 | 1.63
AAGUUUGCUAAUAGCCGUAAG [Fam3.1 aminoacylation ribozyme variant] | 1.3 | 0.898 | 1.39 | 7.16 | 18.2 | 1.36
AAGUUUGCUAAUAGGCCCAAG [Fam3.1 aminoacylation ribozyme variant] | 1.32 | 0.847 | 0.899 | 1.2 | 0.737 | 1.23
AAGUUUGCUAAUAGGCGCUAG [Fam3.1 aminoacylation ribozyme variant] | 0.648 | 0.647 | 0.723 | 0.561 | 0.86 | 0.722
AAGUUUGCUAAUAGGGGCAAG [Fam3.1 aminoacylation ribozyme variant] | 0.686 | 0.505 | 0.663 | 0.665 | 1.08 | 0.649
AAGUUUGCUAAUAGGUGCAAG [Fam3.1 aminoacylation ribozyme variant] | 0.728 | 0.609 | 0.706 | 0.526 | 0.732 | 0.836
AAGUUUGCUAAUAGUAGCACG [Fam3.1 aminoacylation ribozyme variant] | 0.814 | 0.619 | 0.733 | 0.766 | 1.39 | 0.764
AAGUUUGCUAAUAGUCACGAG [Fam3.1 aminoacylation ribozyme variant] | 1.26 | 0.881 | 1.33 | 1.34 | 1.54 | 1.22

— the supplement of paper PMC9233669
